Experimental data: patent US20240400715A1 (VIBRANT PHARMA, published 2024)
Positions count from the first letter of the chain named. Values joined by “and” are separate entries in the source; they are usually repeats but may differ in a detail not shown here. Equal entries are not always repeated.

B1: 302 (TA3), configuration of FIG. 1W (bispecific antibody, IgG4)
heavy: EVQLVESGGGLVQPGGSLRLSCAASGYSFTGYTMNWVRQAPGKGLEWVALINPYKGVSTYNQKFKDRFTISVDKSKNTAYLQMNSLRAEDTAVYYCARSGYYGDSDWYFDVWGQGTLVTVSSASTKGPSVFPLAPCSRSTSESTAALGCLVKDYFPEPVTVSWNSGALTSGVHTFPAVLQSSGLYSLSSVVTVPSSSLGTKTYTCNVDHKPSNTKVDKRVESKYGPPCPPCPAPEAAGGPSVFLFPPKPKDTLMISRTPEVTCVVVDVSQEDPEVQFNWYVDGVEVHNAKTKPREEQFNSTYRVVSVLTVLHQDWLNGKEYKCKVSNKGLPSSIEKTISKAKGQPREPQVYTLPPCQEEMTKNQVSLWCLVKGFYPSDIAVEWESNGQPENNYKTTPPVLDSDGSFFLYSRLTVDKSRWQEGNVFSCSVMHEALHNHYTQKSLSLSL
chain: EVQLVESGGGFVQAGESLTLSCTSSTLTFTPYRMAWYRQAPGKQRDLVADISSGDGRTTNYADFAKGRFTISRDNIKNTVFLRMTNLKPEDTAVYYCNTFVSFVGIARSWGQGTQVTVSSESKYGPPCPPCPAPEAAGGPSVFLFPPKPKDTLMISRTPEVTCVVVDVSQEDPEVQFNWYVDGVEVHNAKTKPREEQFNSTYRVVSVLTVLHQDWLNGKEYKCKVSNKGLPSSIEKTISKAKGQPREPQVCTLPPSQEEMTKNQVSLSCAVKGFYPSDIAVEWESNGQPENNYKTTPPVLDSDGSFFLVSRLTVDKSRWQEGNVFSCSVMHEALHNRFTQKSLSLSL
light: DIQMTQSPSSLSASVGDRVTITCRASQDIRNYLNWYQQKPGKAPKLLIYYTSRLESGVPSRFSGSGSGTDYTLTISSLQPEDFATYYCQQGNTLPWTFGQGTKVEIK
notes: chains put together from VH/VL, CH1, knob-Fc; IgG4, kappa; also called CEA-CD3 bispecific antibody 302; not shown: kappa light chain constant domain (CL)
B2: Knob+CEA-Fab-Hole (202) (bispecific antibody, human IgG4 S228P, kappa, F234A L235A)
chain: ESKYGPPCPPCPAPEAAGGPSVFLFPPKPKDTLMISRTPEVTCVVVDVSQEDPEVQFNWYVDGVEVHNAKTKPREEQFNSTYRVVSVLTVLHQDWLNGKEYKCKVSNKGLPSSIEKTISKAKGQPREPQVYTLPPCQEEMTKNQVSLWCLVKGFYPSDIAVEWESNGQPENNYKTTPPVLDSDGSFFLYSRLTVDKSRWQEGNVFSCSVMHEALHNHYTQKSLSLSL
heavy: EVKLLESGGGLVQPKGSLKLSCAASGFTFNTYAMNWVRQAPGKGLEWVARIRSKYNNYATYYADSVKDRFTISRDDSQSILYLQMNNLKTEDTAMYYCVRHGNFGNSYVSWFAYWGQGTLVTVSSASTKGPSVFPLAPCSRSTSESTAALGCLVKDYFPEPVTVSWNSGALTSGVHTFPAVLQSSGLYSLSSVVTVPSSSLGTKTYTCNVDHKPSNTKVDKRVESKYGPPCPPCPAPEAAGGPSVFLFPPKPKDTLMISRTPEVTCVVVDVSQEDPEVQFNWYVDGVEVHNAKTKPREEQFNSTYRVVSVLTVLHQDWLNGKEYKCKVSNKGLPSSIEKTISKAKGQPREPQVCTLPPSQEEMTKNQVSLSCAVKGFYPSDIAVEWESNGQPENNYKTTPPVLDSDGSFFLVSRLTVDKSRWQEGNVFSCSVMHEALHNRFTQKSLSLSL
light: QAVVTQESALTTSPGETVTLTCRSSTGAVTTSNYANWVQEKPDHLFTGLIGGTNKRAPGVPARFSGSLIGDKAALTITGAQTEDEAIYFCALWYSNLWVFGGGTKVEIKRTVAAPSVFIFPPSDEQLKSGTASVVCLLNNFYPREAKVQWKVDNALQSGNSQESVTEQDSKDSTYSLSSTLTLSKADYEKHKVYACEVTHQGLSSPVTKSFNRGECGGGGSGGGGSEVQLVESGGGFVQAGESLTLSCTSSTLTFTPYRMAWYRQAPGKQRDLVADISSGDGRTTNYADFAKGRFTISRDNIKNTVFLRMTNLKPEDTAVYYCNTFVSFVGIARSWGQGTQVTVSS
notes: VHH linked to the CL of the Fab; human IgG4 knob-into-hole Fc
B3: Fab-Knob+Hole-CEA (103) (bispecific antibody, human IgG4 S228P, kappa, F234A L235A)
heavy: B2 heavy with C354Y, S359C, S371W, A373L, V412Y, R440H, F441Y
chain: ESKYGPPCPPCPAPEAAGGPSVFLFPPKPKDTLMISRTPEVTCVVVDVSQEDPEVQFNWYVDGVEVHNAKTKPREEQFNSTYRVVSVLTVLHQDWLNGKEYKCKVSNKGLPSSIEKTISKAKGQPREPQVCTLPPSQEEMTKNQVSLSCAVKGFYPSDIAVEWESNGQPENNYKTTPPVLDSDGSFFLVSRLTVDKSRWQEGNVFSCSVMHEALHNRFTQKSLSLSLGGGGSGGGGSEVQLVESGGGFVQAGESLTLSCTSSTLTFTPYRMAWYRQAPGKQRDLVADISSGDGRTTNYADFAKGRFTISRDNIKNTVFLRMTNLKPEDTAVYYCNTFVSFVGIARSWGQGTQVTVSS
light: QAVVTQESALTTSPGETVTLTCRSSTGAVTTSNYANWVQEKPDHLFTGLIGGTNKRAPGVPARFSGSLIGDKAALTITGAQTEDEAIYFCALWYSNLWVFGGGTKVEIKRTVAAPSVFIFPPSDEQLKSGTASVVCLLNNFYPREAKVQWKVDNALQSGNSQESVTEQDSKDSTYSLSSTLTLSKADYEKHKVYACEVTHQGLSSPVTKSFNRGEC
notes: Anti-CD3 TA1 Fab + anti-CEA VHH C17 on human IgG4 knob-into-hole Fc
B4: CEA-Fab-Knob-+Hole (203) (bispecific antibody, human IgG4 S228P, kappa, F234A L235A)
heavy: B2 heavy with C354Y, S359C, S371W, A373L, V412Y, R440H, F441Y
chain: B2 chain with Y131C, C136S, W148S, L150A, Y189V, H217R, Y218F
light: EVQLVESGGGFVQAGESLTLSCTSSTLTFTPYRMAWYRQAPGKQRDLVADISSGDGRTTNYADFAKGRFTISRDNIKNTVFLRMTNLKPEDTAVYYCNTFVSFVGIARSWGQGTQVTVSSGGGGSGGGGSQAVVTQESALTTSPGETVTLTCRSSTGAVTTSNYANWVQEKPDHLFTGLIGGTNKRAPGVPARFSGSLIGDKAALTITGAQTEDEAIYFCALWYSNLWVFGGGTKVEIKRTVAAPSVFIFPPSDEQLKSGTASVVCLLNNFYPREAKVQWKVDNALQSGNSQESVTEQDSKDSTYSLSSTLTLSKADYEKHKVYACEVTHQGLSSPVTKSFNRGEC
notes: VHH linked to the VL of the Fab; human IgG4 knob-into-hole Fc
B5: Knob-CEA+Fab-Hole (105) (bispecific antibody, human IgG4 S228P, kappa, F234A L235A)
chain: B3 chain with C131Y, S136C, S148W, A150L, V189Y, R217H, F218Y
heavy: B2 heavy
light: B3 light
notes: as for B3
B6: Knob+CEA-Fab-Hole (204) (bispecific antibody, human IgG4 S228P, kappa, F234A L235A)
chain: B2 chain
heavy: B2 heavy
light: B4 light
notes: as for B4
B7: CEA-Knob+Fab-Hole (104) (bispecific antibody, human IgG4 S228P, kappa, F234A L235A)
chain: B1 chain with C251Y, S256C, S268W, A270L, V309Y, R337H, F338Y
heavy: B2 heavy
light: B3 light
notes: as for B3

These binders were tested against T1, human CD3 on Jurkat cells (human, UniProt P07766 23-207; P04234 22-171; P09693 23-182) (assay: FACS, Jurkat cells;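 note: flow cytometric binding of bispecific antibodies to Jurkat T cells, threefold serial dilutions incubated half an hour in the cold, EC50 taken from the fitted binding curve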).
T1 construct: whole, on cells; CD3 complex as on Jurkat (Clone E6-1) cells; also called CD3 expressing cells (Jurkat)
Method: The binding of the bispecific antibodies was tested on the CA expressing human lung adenocarcinoma cell line (H1573) and the CD3 expressing immortalized T lymphocyte line (Jurkat). The steps are as follows: the cells were harvested, counted, and resuspended in FACS buffer (PBS containing 0.1% BSA) at 2×10⁶ cells/ml. 100 μl of cell suspension was incubated in a V-bottom 96-well plate at 4° C. with 3-fold serial dilutions of bispecific antibodies (20 μg/ml-0.009 μg/ml) for 30 minutes; washed twice with pre-cooled FACS buffer. […] GraphPadPrism was used to obtain the binding curve.

EC50	Binder
1.4 µg/mL and 10.8 nM	B1
0.292 µg/mL and 2.25 nM	B2
0.848 µg/mL and 6.52 nM	B3
0.29 µg/mL and 2.23 nM	B4
0.85 µg/mL and 6.54 nM	B5
1.36 µg/mL and 10.4 nM	B6
3.35 µg/mL and 25.8 nM	B7

What follows are binders tested against T2, human CD3ε/δ (ACRO systems, CDD-H52W1) (human, UniProt P07766 23-126; P04234 22-105) (assay: BLI, antibody captured, antigen in solution;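 note: bispecific antibodies captured on AHIC biosensors to a 1.5 nm loading signal, in PBST with 0.02% detergent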).
T2 construct: Bought protein; also called human CD3ϵ/CD3δ; human CD3 epsilon/delta antigen
Method: The bispecific antibodies were diluted to 5 ag/ml, and 1.5 nm protein was coupled to the surface of the AHIC sensor chip through 0.02% PBST.

Kd [nM]	koff [s⁻¹]	kon [M⁻¹ s⁻¹]	Binder
3.63	0.000879	246000	B1
3.9	0.000866	222000	B2
0.662	0.000233	352000	B3
2.51	0.000621	248000	B4
0.696	0.000256	367000	B5
2.91	0.000571	197000	B6
0.839	0.0003	357000	B7
